According to the supplement of paper PMC7877785:
± gives the uncertainty stated by the source.

Assay: self-splicing fitness, log relative to wild type (ln ratio); higher = more splicing; Tetrahymena group I intron in knt gene, E. coli kanamycin selection, DiMSum; sequences stand for … in CUCUCU…GGAGGGAAAAGUUAUCAGGCAUGCACCUGGUAGCUAGUCUUUAAACCAAUAGAUUGCAUCGGUUUAAAAGGCAAGACCGUCAAAUUGCGGGAAAGGGGUCAACAGCCGUUCAGUACCAAGUCUCAGGGGAAACUUUGAGAUGGCCUUGCAAAGGGUAUGGUAAUAAGCUGACGGACAUGGUCCUAACCACGCAGCCAAGUCCUAAGUCAACAGAUCUUCUGUUGAUAUGGAUGCAGUUCACAGACUAAAUGUCGGUCGGGGAAGAUGUAUUCUUCUCAUAAGAUAUAGUCGGACCUCUCCUUAAUGGGAGCUAGCGGAUGAAGUGAUGCAACACUGGAGCCGCUGGGAACUAAUUUGUAUGCGAAAGUAUAUUGAUUAGUUUUGGAGUACUCGUGGUCG
Method in brief: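 Pooled colonies went to amplicon sequencing on an Illumina HiSeq 2500 after six replicate transformations. The plates were LB agar with 100 μg/mL carbenicillin, 50 μM IPTG and 0.2% rhamnose, with or without 25 μg/mL kanamycin, incubated overnight at 37°C or 30°C. The E. coli BL21(DE3) library had all eight P1ex-region intron nucleotides randomised, the intron placed in the knt kanamycin-resistance gene on pET-22b(+). DiMSum fitness is the error-weighted combination of replicate fold changes, kanamycin against none, normalised to wild type.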

Row | Sequence | self-splicing fitness (ln) (30 °C) | self-splicing fitness (ln) (37 °C)
1 | CCGCAGCAAUAUUACGGCAC | -2.89 ± 0.21 | -2.91 ± 0.25
2 | CCGCAGCAAUAUUACGGGAU | -4.16 ± 0.33 | -1.82 ± 0.16
3 | CCGCAGCAAUAUUACGGGGG | -3.71 ± 0.18 | -3.2 ± 0.3
4 | CCGCAGCAAUAUUACGGGUA | -4.25 ± 0.42 | -2.44 ± 0.22
5 | CCGCAGCAAUAUUACGGUAG | -2.16 ± 0.086 | -1.11 ± 0.093
6 | CCGCAGCAAUAUUACGGUUU | -3.45 ± 0.14 | -2.86 ± 0.16
7 | CCGCAGCAAUAUUACGUAGA | -3.07 ± 0.17 | -1.37 ± 0.12
8 | CCGCAGCAAUAUUACGUCCC |  | -2.65 ± 0.49
9 | CCGCAGCAAUAUUACGUUCC | -3.27 ± 0.41 | -1.54 ± 0.43
10 | CCGCAGCAAUAUUACGUUGU | -3.23 ± 0.16 | -3.8 ± 0.26
11 | CCGCAGCAAUAUUACGUUUU | -3.13 ± 0.13 | -3.26 ± 0.2
12 | CCGGAGCAAUAUUACGAAGC |  | -2.8 ± 0.36
13 | CCGGAGCAAUAUUACGACUG | -0.64 ± 0.14 | -0.428 ± 0.22
14 | CCGGAGCAAUAUUACGAGUA | -3.34 ± 0.27 | -2 ± 0.26
15 | CCGGAGCAAUAUUACGAUCG | -0.502 ± 0.12 | 0.299 ± 0.16
16 | CCGGAGCAAUAUUACGCAAA |  | -2.55 ± 0.33
17 | CCGGAGCAAUAUUACGCCGG |  | -3.09 ± 0.28
18 | CCGGAGCAAUAUUACGCCUA | -2.12 ± 0.26 | -2.59 ± 0.29
19 | CCGGAGCAAUAUUACGCGAA | -3.59 ± 0.42 | -2.41 ± 0.36
20 | CCGGAGCAAUAUUACGCGGC | -3.5 ± 0.31 | -2.33 ± 0.26
21 | CCGGAGCAAUAUUACGCUGC |  | -2.04 ± 0.38
22 | CCGGAGCAAUAUUACGCUUC | -2.55 ± 0.24 | -0.412 ± 0.19
23 | CCGGAGCAAUAUUACGGAAU | -2.95 ± 0.26 | -2.96 ± 0.25
24 | CCGGAGCAAUAUUACGGACU |  | -1.56 ± 0.28
25 | CCGGAGCAAUAUUACGGAUG | -2.78 ± 0.22 | -1.92 ± 0.23
26 | CCGGAGCAAUAUUACGGCGU | -4.4 ± 0.46 | -2.84 ± 0.26

Row | Sequence | self-splicing fitness (ln) (30 °C) | self-splicing fitness (ln) (37 °C)
27 | CCGGAGCAAUAUUACGGCUA |  | -0.58 ± 0.2
28 | CCGGAGCAAUAUUACGGCUC |  | -2.08 ± 0.37
29 | CCGGAGCAAUAUUACGGGUG | -1.61 ± 0.093 | -1.09 ± 0.1
30 | CCGGAGCAAUAUUACGGUGA | -3.8 ± 0.31 | -2.29 ± 0.23
31 | CCGGAGCAAUAUUACGUACC |  | -0.504 ± 0.41
32 | CCGGAGCAAUAUUACGUAUC |  | -2.58 ± 0.29
33 | CCGGAGCAAUAUUACGUAUU |  | -1.05 ± 0.21
34 | CCGGAGCAAUAUUACGUCAU | -4 ± 0.24 | -2.48 ± 0.21
35 | CCGGAGCAAUAUUACGUCUA |  | -1.85 ± 0.33
36 | CCGGAGCAAUAUUACGUGUA | -2.99 ± 0.2 | -2.61 ± 0.25
37 | CCGUAGCAAUAUUACGAACU | -3.64 ± 0.47 | -1.14 ± 0.28
38 | CCGUAGCAAUAUUACGACGC |  | -3.08 ± 0.38
39 | CCGUAGCAAUAUUACGACGU | -0.571 ± 0.075 | -0.205 ± 0.088
40 | CCGUAGCAAUAUUACGAUCA | -2.86 ± 0.32 | -2.34 ± 0.35
41 | CCGUAGCAAUAUUACGAUGC | -4.08 ± 0.36 | -1.39 ± 0.23
42 | CCGUAGCAAUAUUACGCACG | -2.02 ± 0.096 | -1.53 ± 0.13
43 | CCGUAGCAAUAUUACGCCAC | -1.95 ± 0.22 | -1.78 ± 0.33
44 | CCGUAGCAAUAUUACGCGUU | -4.15 ± 0.39 | -2.86 ± 0.31
45 | CCGUAGCAAUAUUACGGAAG | -1.47 ± 0.17 | -2.34 ± 0.41
46 | CCGUAGCAAUAUUACGGAAU | -3.73 ± 0.3 | -1.92 ± 0.32
47 | CCGUAGCAAUAUUACGGACU | -4.02 ± 0.22 | -2.54 ± 0.2
48 | CCGUAGCAAUAUUACGGAGG | -3.6 ± 0.17 | -3.34 ± 0.25
49 | CCGUAGCAAUAUUACGUAUG | -0.772 ± 0.082 | 0.203 ± 0.12
50 | CCGUAGCAAUAUUACGUCCA | -2.27 ± 0.28 | -3.26 ± 0.28
51 | CCGUAGCAAUAUUACGUCGU | -3.2 ± 0.18 | -1.25 ± 0.16
52 | CCGUAGCAAUAUUACGUGCA | -3.06 ± 0.21 | -2.88 ± 0.15
